Laboratory results as given in patent US20140044674A1 (Hoffmann-La Roche, published 2014).

B1: 4B9 Fab-IL-10 (other)
heavy: EVQLLESGGGLVQPGGSLRLSCAASGFTFSSYAMSWVRQAPGKGLEWVSAIIGSGASTYYADSVKGRFTISRDNSKNTLYLQMNSLRAEDTAVYYCAKGWFGGFNYWGQGTLVTVSSASTKGPSVFPLAPSSKSTSGGTAALGCLVKDYFPEPVTVSWNSGALTSGVHTFPAVLQSSGLYSLSSVVTVPSSSLGTQTYICNVNHKPSNTKVDKKVEPKSCDGGGGSGGGGSGGGGSSPGQGTQSENSCTHFPGNLPNMLRDLRDAFSRVKTFFQMKDQLDNLLLKESLLEDFKGYLGCQALSEMIQFYLEEVMPQAENQDPDIKAHVNSLGENLKTLRLRLRRCHRFLPCENKSKAVEQVKNAFNKLQEKGIYKAMSEFDIFINYIEAYMTMKIRN
light: EIVLTQSPGTLSLSPGERATLSCRASQSVTSSYLAWYQQKPGQAPRLLINVGSRRATGIPDRFSGSGSGTDFTLTISRLEPEDFAVYYCQQGIMLPPTFGQGTKVEIKRTVAAPSVFIFPPSDEQLKSGTASVVCLLNNFYPREAKVQWKVDNALQSGNSQESVTEQDSKDSTYSLSSTLTLSKADYEKHKVYACEVTHQGLSSPVTKSFNRGEC
notes: also called Fab-IL-10 (clone 4B9)
B2: 4B9 Fab-scIL-10-Fab (other)
heavy: EVQLLESGGGLVQPGGSLRLSCAASGFTFSSYAMSWVRQAPGKGLEWVSAIIGSGASTYYADSVKGRFTISRDNSKNTLYLQMNSLRAEDTAVYYCAKGWFGGFNYWGQGTLVTVSSASTKGPSVFPLAPSSKSTSGGTAALGCLVKDYFPEPVTVSWNSGALTSGVHTFPAVLQSSGLYSLSSVVTVPSSSLGTQTYICNVNHKPSNTKVDKKVEPKSCDGGGGSGGGGSGGGGSSPGQGTQSENSCTHFPGNLPNMLRDLRDAFSRVKTFFQMKDQLDNLLLKESLLEDFKGYLGCQALSEMIQFYLEEVMPQAENQDPDIKAHVNSLGENLKTLRLRLRRCHRFLPCENKSKAVEQVKNAFNKLQEKGIYKAMSEFDIFINYIEAYMTMKIRNGGGGSGGGGSGGGGSGGGGSSPGQGTQSENSCTHFPGNLPNMLRDLRDAFSRVKTFFQMKDQLDNLLLKESLLEDFKGYLGCQALSEMIQFYLEEVMPQAENQDPDIKAHVNSLGENLKTLRLRLRRCHRFLPCENKSKAVEQVKNAFNKLQEKGIYKAMSEFDIFINYIEAYMTMKIRNGGGGSGGGGSGGGGSEVQLLESGGGLVQPGGSLRLSCAASGFTFSSYAMSWVRQAPGKGLEWVSAIIGSGASTYYADSVKGRFTISRDNSKNTLYLQMNSLRAEDTAVYYCAKGWFGGFNYWGQGTLVTVSSASTKGPSVFPLAPSSKSTSGGTAALGCLVKDYFPEPVTVSWNSGALTSGVHTFPAVLQSSGLYSLSSVVTVPSSSLGTQTYICNVNHKPSNTKVDKKVEPKSCD
light: B1 light
notes: also called Fab-scIL-10-Fab (clone 4B9)

Legend:
[1] = molecular target: T1, human IL-10R1 ECD fused to a human Fc region, biotinylated (human, biotinylated (site not stated)); assay: SPR ProteOn XPR36, 25 C; biotinylated hu IL-10R1-Fc on neutravidin chip, construct as analyte
T1 construct: Captured on a neutravidin chip; also called hu IL-10R1; IL-10 receptor 1
Experimental: To measure the interaction between the antibody-IL-10 fusion constructs and the human IL-10R1, an NLC chip was used for immobilization of the biotinylated receptor (FIG. 9B). Between 400 and 1600 RU of human IL-10R1 (see SEQ ID NO: 87) were captured on the neutravidin-derivatized chip matrix along vertical channels at a concentration of 10 μg/ml and a flow rate of […] for varying contact times. Binding to biotinylated human IL10R1 was measured at six different analyte concentrations (50, 10, 2, 0.4, 0.08, 0 nM) by injections in horizontal orientation at 100 μl/min, recording the association rate for 180 s, the dissociation rate for 600 s. Running buffer (PBST) was injected along the sixth channel to provide an “in-line” blank for referencing. Association rates (kₒₙ) and dissociation rates (koff) were calculated using a simple 1:1 Langmuir binding model (ProteOn Manager software version 2.1) by simultaneously fitting the association and dissociation sensorgrams. The equilibrium dissociation constant (KD) was calculated as the ratio koff/kₒₙ. As human IL-10R1 could not be regenerated without a loss of activity, the two subsequent steps of ligand capture and analyte injection were performed channel per channel using a freshly immobilized sensorchip surface for every interaction.

[2] = molecular target: T2, His-tagged cynomolgus FAP ECD (cynomolgus, UniProt Q12884 27-760 (human entry)); assay: SPR ProteOn XPR36, 25 C; His-tagged FAP captured by anti-penta-His IgG, construct as analyte
T2 construct: also called cyno FAP
Experimental: (§1) To determine the affinities to FAP, the target protein was captured via its H6-tag by a covalently immobilized anti-H6 antibody (FIG. 9A). Briefly, anti-penta His IgG (Qiagen #34660, mouse monoclonal antibody) was immobilized at high levels (up to ˜5.000 RU) at 30 μ/min onto separate vertical channels of a GLM chip by simultaneously activating all channels for 5 min with a freshly prepared mixture of 1-ethyl-3-(3-dimethylaminopropyl)-carboiimide (EDC) and N-hydroxysuccinimide (sNHS), subsequently injecting 15 μg/ml anti-penta His IgG in 10 mM sodium acetate buffer pH 4.5 for 180 sec. Channels were blocked using a 5-min injection of ethanolamine. H6-tagged FAP from different species (see SEQ ID NOs 81, 83 and 85) was captured from a 5 μg/ml dilution in running buffer along the vertical channels for 60 s at 30 μl/min to achieve ligand densities between ˜250 and 600 RU. In a one-shot kinetic assay set-up (OSK), antibody-IL-10 fusion constructs were injected as analytes along the horizontal channels in a five-fold dilution series ranging from 50 to 0.08 nM at 100 μl/min. Association phase was recorded for 180 s, dissociation phase for 600 s. […] Running buffer (PBST) was injected along the sixth channel to provide an “in-line” blank for referencing. Association rates (kₒₙ) and dissociation rates (koff) were calculated using a simple 1:1 Langmuir binding model (ProteOn Manager software version 2.1) by simultaneously fitting the association and dissociation sensorgrams. The equilibrium dissociation constant (KD) was calculated as the ratio koff/kₒₙ.

[3] = molecular target: T3, His-tagged mouse FAP ECD (mouse, UniProt P97321 27-761); assay: as above
T3 construct: also called mu FAP; murine FAP
Experimental: as §1

[4] = molecular target: T4, His-tagged human FAP ECD (human, UniProt Q12884 27-760); assay: as above
T4 construct: also called hu FAP
Experimental: as §1

| Binder | Kd [1] [nM] | koff [1] [s⁻¹] | kon [1] [M⁻¹ s⁻¹] | Kd [2] [nM] | koff [2] [s⁻¹] | kon [2] [M⁻¹ s⁻¹] | Kd [3] [nM] | koff [3] [s⁻¹] | kon [3] [M⁻¹ s⁻¹] | Kd [4] [nM] | koff [4] [s⁻¹] | kon [4] [M⁻¹ s⁻¹] |
| --- | --- | --- | --- | --- | --- | --- | --- | --- | --- | --- | --- | --- |
| B1 | 0.0212 | 4.57e-05 | 2.15e+06 | 0.0175 | 7.27e-05 | 4.16e+06 | 0.0234 | 6.27e-05 | 2.68e+06 | 0.00105 | 5.72e-06 | 5.47e+06 |
| B2 | 0.0553 | 9.58e-05 | 1.73e+06 | 0.00679 | 3.35e-05 | 4.93e+06 | 0.0303 | 7.4e-05 | 2.45e+06 | 0.00656 | 3.11e-05 | 4.74e+06 |
